In patent US20250270296A1:
Residue numbers refer to the chain shown, from its start.

B1: RBD-chAb-1 (antibody, V domains shown)
VH: EVQLQQSGPQLVRPGASMKISCKASGYSFTTYWMHWVKQRPGQGLQWIGMIDPSDSETRLNQKFKDKATLTVDKSSSTAYMQLSSPTSEDSAVYYCARDFDYDRTMDYWGQGTSVTVSS
VL: DIVMSQSPSSLAVSVGEKVTMSCKSSQSLLFSSSQKNYLAWYQQKAGQSPKLLIFWASTRESGVPDRFTGSGSGTDFTLTISSVKAEDLAIYYCKQYYKYPLTFGAGTKLDIK
B2: RBD-chAb-15 (antibody, V domains shown)
VH: EVQLEESGPGLVQPSQSLSITCTVSDFSLTTYGVHWVRQSPGKGLEWLGVIWSGGSTDYNAAFISRLSISKDNSKSQVFFKMNSLQTNDTAIYYCARMGDGYYVGAMDYWGQGTSVTVSS
VL: DIQLTQSPAILSVSPGERVSFSCRASQSIGTSIHWYQQRTNGSPRHLIKYASESISGIPSRFSGSGSGTDFTLTINGVESEDIADYYCQQGHNWPLTFGAGTKLDIK
B3: RBD-chAb-28 (antibody, V domains shown)
VH: QVQLQQPGTELVMPGASVKMSCKASGYTFTDYYLHWMKQRPGQGLEWIGAIDSSDSYTDYNQNFKGKATLTVDESSSTAYMHLSSLTSEDSAVYYCARGKDAYDRRPWFAYWGQGTLVTVSA
VL: DIQMTQTTSSLSASLGDRVTISCSASQGIRYYLNWYQQKPDGTVKLLIYYTSNLHSGVPSRFSGSGSGTDYSLTISNLEPEDIATYYCQQYNKLPYTFGGGTKLDIK
B4: RBD-chAb-45 (antibody, V domains shown)
VH: EVQLQQSGPELVKPGASVKISCKTSGYTFTEYTIYWVKQSLGKSLEWIGGNNPNNDDTTYKQFFKGKATLTVDKSSSTAYMELRSLTSEDSAVYYCARDGYPYYYALDFWGQGTSVTVSS
VL: DILMTQSQKFMSTSVGDRVSVTCKSSQNVGTNVAWYQQKPGQSPKALIYSASYRYSGVPDHFTGSGSGTDFTLTISNVQSADLAEYFCQQYNNYPWTFGGGTKLDIK
B5: RBD-chAb-51 (antibody, V domains shown)
VH: B4 VH with V18A, I34M, L41H, N51I, D56G, K61N, F63T, Y103F, F109Y, T114I
VL: DIVMTQSQKFMSTSVGDRVSVTCKARQIVGTNVAWYQQKPGQSPKALIYSASYRYSGVPDRFTGSGSGTDFTLTITNVHSEDLAEFFCHQYNSYPWTFGGGTKLDIK

substrate: S protein of SARS-CoV-2 variant B.1.1.7 (UK, Alpha), full length, on pseudovirus or authentic virus (SARS-CoV-2), P0DTC2; test: cell-based or functional assay

| Binder | SARS-CoV2 pseudovirus IC50 [ng/mL] | PRNT50 [ng/mL] |
| --- | --- | --- |
| B1 | 33.5 |  |
| B2 | 39.7 | 58.1 |
| B3 | 11.3 | 58.5 |
| B4 | 2.06 | 5.29 |
| B5 | 3.07 | 6.39 |

substrate: S protein of SARS-CoV-2 variant P1 (Brazil, Gamma), full length, on pseudovirus or authentic virus (SARS-CoV-2), P0DTC2; test: cell-based or functional assay

| Binder | SARS-CoV2 pseudovirus IC50 [ng/mL] | PRNT50 [ng/mL] |
| --- | --- | --- |
| B1 | 17.1 |  |
| B2 | 7.18 | 50.9 |
| B3 | 4.18 | 58.3 |
| B4 | 0.76 | 3.26 |
| B5 | 0.7 | 2.92 |

substrate: S protein of SARS-CoV-2 variant B.1.351 (SA, Beta), full length, on pseudovirus (SARS-CoV-2), P0DTC2; test: cell-based or functional assay

| Binder | SARS-CoV2 pseudovirus IC50 [ng/mL] |
| --- | --- |
| B1 | 46.7 |
| B2 | 30.1 |
| B3 | 16.5 |
| B4 | 2.68 |
| B5 | 1.26 |
